Source: the supplement of paper PMC9112550, “Optimization of the antimicrobial peptide Bac7 by deep mutational scanning” (BMC Biology, 2022)

What follows are sequences tested on Escherichia coli TOP10 (assay: shrunken log2 fold change of peptide-encoding DNA abundance (4.5 h post-induction vs induction); higher = less antimicrobial activity (less host growth inhibition)). Conditions: time post-induction: 4.5 h; library: site-saturation at positions 5, 18, 19, 20.
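Note: peptides expressed intracellularly from a pBAD plasmid library in pooled LB shake-flask culture, induced with 0.3% L-arabinose, DNA abundance read by NGS, three biological replicates, DESeq2 with apeglm shrinkage.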

Sequence | shrunken log2 fold change
RRIRIRPPRLPRPRPRPEPVPRP | 0.14
RRIRGRPPRLPRPRPRPTCTPRP | 0.975
RRIRTRPPRLPRPRPRPDFSPRP | -0.0283
RRIRARPPRLPRPRPRPEANPRP | 1.69
RRIRLRPPRLPRPRPRPHVKPRP | -0.333
RRIRQRPPRLPRPRPRPWHHPRP | -0.00612
RRIRNRPPRLPRPRPRPVSDPRP | -0.192
RRIRKRPPRLPRPRPRPKNYPRP | 0.0189
RRIRVRPPRLPRPRPRPTVQPRP | -0.0375
RRIRFRPPRLPRPRPRPLPPPRP | 0.828
RRIRHRPPRLPRPRPRPSGEPRP | -0.03
RRIRIRPPRLPRPRPRPPHYPRP | -0.707
RRIRKRPPRLPRPRPRPVRIPRP | 0.494
RRIRKRPPRLPRPRPRPQDDPRP | 0.00685
RRIRGRPPRLPRPRPRPSYYPRP | 0.118
RRIRYRPPRLPRPRPRPIFLPRP | -0.246
RRIRDRPPRLPRPRPRPKSEPRP | 0.0995
RRIRFRPPRLPRPRPRPRNYPRP | -0.236
RRIRQRPPRLPRPRPRPMWVPRP | 0.551
RRIRDRPPRLPRPRPRPHFNPRP | -0.381
RRIRQRPPRLPRPRPRPCRLPRP | -0.15
RRIRTRPPRLPRPRPRPRCHPRP | -0.334
RRIRGRPPRLPRPRPRPYIPPRP | -0.801
RRIRFRPPRLPRPRPRPMNPPRP | -0.0531
RRIRERPPRLPRPRPRPYMWPRP | -0.452

Sequence | shrunken log2 fold change
RRIRFRPPRLPRPRPRPSPQPRP | 0.0415
RRIRGRPPRLPRPRPRPVRHPRP | 0.496
RRIRYRPPRLPRPRPRPRDCPRP | -0.137
RRIRMRPPRLPRPRPRPSAYPRP | 0.319
RRIRNRPPRLPRPRPRPKFKPRP | -0.508
RRIRDRPPRLPRPRPRPRKSPRP | -0.0168
RRIRARPPRLPRPRPRPYMKPRP | -0.366
RRIRGRPPRLPRPRPRPCVAPRP | 1.1
RRIRQRPPRLPRPRPRPNQYPRP | -0.529
RRIRSRPPRLPRPRPRPGVCPRP | 0.562
RRIRLRPPRLPRPRPRPVASPRP | -0.0255
RRIRKRPPRLPRPRPRPCCTPRP | -0.0454
RRIRHRPPRLPRPRPRPLHFPRP | -0.0265
RRIRYRPPRLPRPRPRPNIHPRP | -0.98
RRIRIRPPRLPRPRPRPEDGPRP | -0.00203
RRIRKRPPRLPRPRPRPIGYPRP | -0.0204
RRIRPRPPRLPRPRPRPNCAPRP | 0.208
RRIRWRPPRLPRPRPRPTGWPRP | 0.594
RRIRLRPPRLPRPRPRPIGNPRP | 0.0592
RRIRFRPPRLPRPRPRPSRCPRP | -0.0633
RRIRGRPPRLPRPRPRPYEHPRP | 0.256
RRIRMRPPRLPRPRPRPCQWPRP | -0.152
RRIRHRPPRLPRPRPRPPFLPRP | -0.251
RRIRYRPPRLPRPRPRPDLKPRP | -0.21
RRIRGRPPRLPRPRPRPKRQPRP | 0.377

Sequence | shrunken log2 fold change
RRIRTRPPRLPRPRPRPTILPRP | -0.453
RRIRARPPRLPRPRPRPRYTPRP | -0.0676
RRIRARPPRLPRPRPRPYHKPRP | -0.193
RRIRDRPPRLPRPRPRPNARPRP | 0.299
RRIRVRPPRLPRPRPRPKKNPRP | 0.28
RRIRCRPPRLPRPRPRPKAWPRP | 0.132
RRIRNRPPRLPRPRPRPMYYPRP | 0.0222
RRIRMRPPRLPRPRPRPTDAPRP | 0.741
RRIRARPPRLPRPRPRPLIIPRP | -0.415
RRIRSRPPRLPRPRPRPPYHPRP | -0.584
RRIRSRPPRLPRPRPRPEPKPRP | 0.954
RRIRKRPPRLPRPRPRPQSKPRP | 0.116
RRIRWRPPRLPRPRPRPGVQPRP | 0.309
RRIRVRPPRLPRPRPRPQVEPRP | -0.272
RRIRRRPPRLPRPRPRPDQWPRP | 0.224
RRIRARPPRLPRPRPRPAKNPRP | 0.312
RRIRFRPPRLPRPRPRPVDGPRP | 0.148
RRIRMRPPRLPRPRPRPGQMPRP | 0.123
RRIRIRPPRLPRPRPRPTQIPRP | 0.245
RRIRVRPPRLPRPRPRPGHFPRP | 0.136
RRIRQRPPRLPRPRPRPVSIPRP | 0.0429
RRIRDRPPRLPRPRPRPRIMPRP | 0.015
RRIRHRPPRLPRPRPRPKHEPRP | -0.156
RRIRQRPPRLPRPRPRPNSSPRP | -1.14
RRIRIRPPRLPRPRPRPHWWPRP | 0.133

Sequence | shrunken log2 fold change
RRIRERPPRLPRPRPRPSINPRP | -0.798
RRIRARPPRLPRPRPRPYTSPRP | 0.0229
RRIRFRPPRLPRPRPRPVTSPRP | -0.0369
RRIRDRPPRLPRPRPRPQPQPRP | 0.517
RRIRWRPPRLPRPRPRPEYNPRP | 0.195
RRIRGRPPRLPRPRPRPSMTPRP | 2.35
RRIRKRPPRLPRPRPRPPIKPRP | 0.0648
RRIRTRPPRLPRPRPRPGGSPRP | 0.135
RRIRQRPPRLPRPRPRPKTGPRP | -0.151
RRIRTRPPRLPRPRPRPMHTPRP | 0.0134
RRIRLRPPRLPRPRPRPEEAPRP | 0.495
RRIRVRPPRLPRPRPRPQQEPRP | 0.0458
RRIRRRPPRLPRPRPRPMAMPRP | -0.011
RRIRQRPPRLPRPRPRPPRAPRP | 0.552
RRIRWRPPRLPRPRPRPAKGPRP | -0.0312
RRIRYRPPRLPRPRPRPDKMPRP | -0.0477
RRIRGRPPRLPRPRPRPKWIPRP | 0.118
RRIRERPPRLPRPRPRPVNQPRP | -0.123
RRIRIRPPRLPRPRPRPISWPRP | -0.392
RRIRDRPPRLPRPRPRPRWQPRP | 0.0899
RRIRHRPPRLPRPRPRPNFRPRP | -0.144
RRIRSRPPRLPRPRPRPWIPPRP | -0.119
RRIRGRPPRLPRPRPRPHRWPRP | 0.252
RRIRYRPPRLPRPRPRPLRYPRP | -0.426
RRIRYRPPRLPRPRPRPPMQPRP | -0.0424

Sequence | shrunken log2 fold change
RRIRDRPPRLPRPRPRPLIHPRP | -0.0249
RRIRERPPRLPRPRPRPNDKPRP | -0.507
RRIRHRPPRLPRPRPRPLRRPRP | 0.3
RRIRLRPPRLPRPRPRPMWYPRP | 0.0493
RRIRRRPPRLPRPRPRPKYQPRP | -0.017
RRIRKRPPRLPRPRPRPMYGPRP | 0.00748
RRIRHRPPRLPRPRPRPYRWPRP | -0.00879
RRIRKRPPRLPRPRPRPCTFPRP | 0.00111
RRIRWRPPRLPRPRPRPVYEPRP | -0.00561
RRIRSRPPRLPRPRPRPHEYPRP | 0.00184
RRIRIRPPRLPRPRPRPYQIPRP | -0.273
RRIRTRPPRLPRPRPRPPGIPRP | 0.264
RRIRPRPPRLPRPRPRPKSYPRP | -0.0208
RRIRMRPPRLPRPRPRPSDDPRP | 1.89
RRIRRRPPRLPRPRPRPAPWPRP | 0.626
RRIRLRPPRLPRPRPRPKQHPRP | -0.103
RRIRQRPPRLPRPRPRPGKNPRP | -0.294
RRIRDRPPRLPRPRPRPGLLPRP | 0.16
RRIRHRPPRLPRPRPRPQVWPRP | -0.112
RRIRSRPPRLPRPRPRPRDVPRP | -0.0918
RRIRMRPPRLPRPRPRPPMNPRP | 0.315
RRIRSRPPRLPRPRPRPCGNPRP | 0.1
RRIRQRPPRLPRPRPRPAEPPRP | 0.157
RRIRNRPPRLPRPRPRPFSGPRP | -0.277
RRIRDRPPRLPRPRPRPEIVPRP | 0.048
